The target in test [1] is T1, human FcγRIIaR extracellular domain, His-tagged (human, UniProt P12318 34-217).
T1 construct: also called human FcγRIIa (type R); FcgRIIaR; not shown: C-terminal His-tag
T1 chain: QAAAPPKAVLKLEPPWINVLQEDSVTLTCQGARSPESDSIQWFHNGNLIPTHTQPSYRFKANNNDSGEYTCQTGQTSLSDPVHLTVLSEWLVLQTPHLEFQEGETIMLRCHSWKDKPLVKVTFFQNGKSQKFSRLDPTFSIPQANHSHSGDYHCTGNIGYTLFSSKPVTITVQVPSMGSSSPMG
Put plainly: SPR (BIACORE), antibody captured on chip, FcγR as analyte, 25 °C; KD of SG1 divided by KD of the variant. How it is done:
(§1) After the measurement, the antibody captured on the chip was washed off by allowing reaction with 10 mM glycine-HCl, pH1.5 and 25 mM NaOH so that the chip was regenerated and used repeatedly. The sensorgrams obtained as measurement results were analyzed by the 1:1 Langmuir binding model using the BIACORE® Evaluation Software to calculate the binding rate constant ka (L/mol/s) and dissociation rate constant kd (l/s), and the dissociation constant KD (mol/L) was calculated from these values. […] Regarding such interactions, KD values were calculated using the following 1:1 binding model described in BIACORE® T100 Software Handbook BR1006-48 Edition AE.
(§2) The behavior of interacting molecules according to the 1:1 binding model on BIACORE® can be described by Equation 1: Req=C·R max/(KD+C)+RI, wherein, Req is a plot of steady-state binding levels to analyte concentration. C is concentration, RI is bulk refractive index contribution in the sample, and Rmax is analyte binding capacity of the surface. When this equation is rearranged, KD can be expressed as Equation 2: KD=C·Rmax/(Req−RI)−C. KD can be calculated by substituting the values of Rmax, RI, and C into Equation 1 or Equation 2. From the current measurement conditions, RI=0, C=2 μmol/L can be used.
In general terms: In SPR one partner is held on a chip, and binding of the other changes the refractive index at the surface.

For test [2], the target named is T2, human FcγRIIb extracellular domain, His-tagged (human, UniProt P31994 43-217).
T2 construct: also called FcgRIIb; not shown: C-terminal His-tag
T2 sequence: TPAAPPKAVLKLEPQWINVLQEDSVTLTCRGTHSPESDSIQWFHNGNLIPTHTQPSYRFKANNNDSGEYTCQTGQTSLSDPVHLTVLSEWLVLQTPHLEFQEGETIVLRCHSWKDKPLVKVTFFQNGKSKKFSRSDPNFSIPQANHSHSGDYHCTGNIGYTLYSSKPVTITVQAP
Described as above. On the procedure:
as §1, §2

Test [3] concerns the target T3, human FcγRIIIaV extracellular domain, His-tagged (human, UniProt P08637 17-208).
T3 construct: also called human FcγRIIIa (V158 allotype); FcgRIIIaV; not shown: C-terminal His-tag
The test is described as above. How it is done: as §1, §2

Test [4] has as its target T4, cynomolgus monkey FcγRIIa1 extracellular domain, His-tagged (cynomolgus monkey).
T4 construct: also called cyno FcγRIIa1; cynoFcgRIIa1; not shown: C-terminal His-tag
T4 chain: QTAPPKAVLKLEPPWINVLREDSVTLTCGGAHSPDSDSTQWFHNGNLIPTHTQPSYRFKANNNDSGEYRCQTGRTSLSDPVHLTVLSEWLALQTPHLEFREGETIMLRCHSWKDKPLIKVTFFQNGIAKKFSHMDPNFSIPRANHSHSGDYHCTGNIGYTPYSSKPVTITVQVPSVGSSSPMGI
The description is as above. How it is done:
as §1, §2

Test [5] concerns the target T5, cynomolgus monkey FcγRIIa2 extracellular domain, His-tagged (cynomolgus monkey).
T5 construct: also called cyno FcγRIIa2; cynoFcgRIIa2; not shown: C-terminal His-tag
T5 chain: T4 chain with P95T, T121A, I127K, A128S, K130N, D135N, R142Q
The test is described as above. On the procedure: as §1, §2

The target in test [6] is T6, cynomolgus monkey FcγRIIa3 extracellular domain, His-tagged (cynomolgus monkey).
T6 construct: also called cyno FcγRIIa3; cynoFcgRIIa3; not shown: C-terminal His-tag
T6 chain: T4 chain with P95T, T121A, A128S, H133P, D135N
The description is as above. How it is done:
as §1, §2

The target in test [7] is T7, cynomolgus monkey FcγRIIb extracellular domain, His-tagged (cynomolgus monkey).
T7 construct: also called cyno FcγRIIb; cynoFcγRIIb; not shown: C-terminal His-tag
T7 chain: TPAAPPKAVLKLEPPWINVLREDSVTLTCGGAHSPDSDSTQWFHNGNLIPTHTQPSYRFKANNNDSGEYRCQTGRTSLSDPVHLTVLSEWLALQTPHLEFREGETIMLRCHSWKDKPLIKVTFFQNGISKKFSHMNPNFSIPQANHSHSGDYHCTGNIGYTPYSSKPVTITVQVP
Described as above. On the procedure:
as §1, §2

Test [8] deals with T8, cynomolgus monkey FcγRIIIaS extracellular domain, His-tagged (cynomolgus monkey, UniProt Q8SPW2 21-206 at identity 1.00)).
T8 construct: also called cyno FcγRIIIaS; cynoFcγRIIIaS; not shown: C-terminal His-tag
T8 chain: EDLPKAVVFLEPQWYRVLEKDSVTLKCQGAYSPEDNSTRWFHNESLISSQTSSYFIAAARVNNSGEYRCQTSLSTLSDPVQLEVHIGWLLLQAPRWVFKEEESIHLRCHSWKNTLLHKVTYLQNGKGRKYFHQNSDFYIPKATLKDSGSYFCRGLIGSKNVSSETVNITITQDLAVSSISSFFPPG
The test is described as above. On the procedure: as §1, §2

The target of test [9] is T9, human FcγRIIaH extracellular domain, His-tagged (human, UniProt P12318 34-217).
T9 construct: also called human FcγRIIa (type H); FcgRIIaH; not shown: C-terminal His-tag
T9 sequence: T1 chain with R134H
Described as above. On the procedure:
as §1, §2

For test [10], the target named is T10, Human latent myostatin (human, UniProt O14793 25-266; O14793 267-375).
T10 construct: Biotinylated in the ELISAs; also called human myostatin latent form
T10 sequence 1: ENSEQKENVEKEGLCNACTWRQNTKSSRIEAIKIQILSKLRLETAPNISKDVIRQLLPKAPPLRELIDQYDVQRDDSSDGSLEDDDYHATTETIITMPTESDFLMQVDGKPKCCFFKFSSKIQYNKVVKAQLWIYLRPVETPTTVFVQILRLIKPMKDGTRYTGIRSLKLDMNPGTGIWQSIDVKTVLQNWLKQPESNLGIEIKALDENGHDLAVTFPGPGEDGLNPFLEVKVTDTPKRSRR
T10 sequence 2: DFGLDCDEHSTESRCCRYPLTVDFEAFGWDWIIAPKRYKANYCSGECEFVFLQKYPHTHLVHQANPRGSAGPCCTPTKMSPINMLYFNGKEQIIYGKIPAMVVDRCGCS
Put plainly: SPR (BIACORE), additional dissociation phase at pH5.8 after dissociation at pH7.4, Scrubber 2.0 fit. On the procedure: Each amino acid in the CDRs was individually mutated to histidine using In-Fusion HD Cloning Kit (Clontech Inc, or Takara Bio company) according to the manufacturer's instructions. […] All histidine-substituted variants were evaluated by a modified BIACORE® assay as compared to that described above. Briefly, an additional dissociation phase at pH5.8 was integrated into the BIACORE® assay immediately after the dissociation phase at pH7.4. This is to assess the pH-dependent dissociation between antibody (Ab) and antigen (Ag) from the complexes formed at pH7.4 as opposed to the corresponding dissociation at pH5.8. The dissociation rate at pH5.8 buffer was determined by processing and fitting data using the Scrubber 2.0 (BioLogic Software) curve fitting software.
Antibodies with a combination of these mutations in the CDRs were then generated.

Substitutions are numbered along the chain they refer to. Names and notes keep the numbering of the source.

T3 sequence (P08637 17-208 F176V): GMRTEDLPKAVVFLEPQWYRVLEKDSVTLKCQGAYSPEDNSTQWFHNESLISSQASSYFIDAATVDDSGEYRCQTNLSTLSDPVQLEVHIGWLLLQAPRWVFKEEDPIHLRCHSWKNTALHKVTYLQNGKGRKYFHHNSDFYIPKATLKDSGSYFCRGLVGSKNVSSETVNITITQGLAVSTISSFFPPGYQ

B1: M103205H795-MY066/M103202L889-SK1 (antibody, human IgG1, kappa)
heavy: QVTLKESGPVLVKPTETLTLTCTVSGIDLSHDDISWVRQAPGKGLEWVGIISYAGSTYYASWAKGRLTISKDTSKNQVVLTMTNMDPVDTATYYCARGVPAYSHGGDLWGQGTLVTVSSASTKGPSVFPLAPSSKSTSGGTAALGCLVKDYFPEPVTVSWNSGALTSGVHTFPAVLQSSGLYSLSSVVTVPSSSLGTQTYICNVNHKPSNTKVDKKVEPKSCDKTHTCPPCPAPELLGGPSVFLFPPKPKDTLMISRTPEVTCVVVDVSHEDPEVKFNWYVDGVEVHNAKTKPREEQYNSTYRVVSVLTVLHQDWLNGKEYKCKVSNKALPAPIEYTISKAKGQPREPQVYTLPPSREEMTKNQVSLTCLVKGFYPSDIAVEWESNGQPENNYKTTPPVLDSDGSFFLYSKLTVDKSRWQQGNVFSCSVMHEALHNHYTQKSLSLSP
light: DIVMTQSPATLSLSPGERATLSCTSSQSVYHANWLSWFQQKPGQPPKLLIYWASTLAYGVPSRFSGSGSGTDFTLTISSLQPEDAATYYCAGGYGGGRYAFGQGTKVEIKRTVAAPSVFIFPPSDEQLKSGTASVVCLLNNFYPREAKVQWKVDNALQSGNSQESVTEQDSKDSTYSLSSTLTLSKADYEKHKVYACEVTHQGLSSPVTKSFNRGEC
notes: Substitution introduced into M103205H795-SG1 and expressed with M103202L889-SK1 as light chain; also called K334Y variant of MS1032LO06-SG1
As to B1, the “KD fold for humanFcgRs (SG1 = 1)” value in test [1] came out at 1.1 fold; in test [2], 1.6 fold; in test [3], 2.79 fold; in [9], 1.1 fold. The “KD fold for cynoFcgRs (SG1 = 1)” value was 1.5 fold in [4]; 2 fold in test [5]; 2.5 fold in [6]; 1.3 fold in [7]; 2.25 fold in test [8].

B2: M103205H795-MY015/M103202L889-SK1 (antibody, human IgG1, kappa)
heavy: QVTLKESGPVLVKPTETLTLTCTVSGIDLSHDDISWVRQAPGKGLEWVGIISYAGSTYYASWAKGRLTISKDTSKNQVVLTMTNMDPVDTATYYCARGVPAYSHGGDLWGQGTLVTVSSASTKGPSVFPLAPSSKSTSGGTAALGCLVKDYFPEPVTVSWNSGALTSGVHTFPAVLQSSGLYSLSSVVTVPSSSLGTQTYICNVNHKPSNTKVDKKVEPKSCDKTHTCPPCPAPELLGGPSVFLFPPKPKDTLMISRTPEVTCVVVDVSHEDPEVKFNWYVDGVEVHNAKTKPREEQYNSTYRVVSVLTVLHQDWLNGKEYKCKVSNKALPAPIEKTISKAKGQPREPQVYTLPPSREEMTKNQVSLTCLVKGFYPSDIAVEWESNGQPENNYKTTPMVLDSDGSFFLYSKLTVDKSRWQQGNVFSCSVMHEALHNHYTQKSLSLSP
light: B1 light
notes: Substitution introduced into M103205H795-SG1 and expressed with M103202L889-SK1 as light chain; also called P396M variant of MS1032LO06-SG1
On to B2, for which the “KD fold for humanFcgRs (SG1 = 1)” value stood at 3.4 fold in test [1], 2.9 fold in test [2], 3.38 fold in [3] and 2.1 fold in [9]. The “KD fold for cynoFcgRs (SG1 = 1)” value in test [4] amounted to 2.5 fold; in [5], 3.4 fold; in test [6], 3.6 fold; in test [7], 3 fold; in test [8], 3.8 fold.

B3: M103205H795-MY067/M103202L889-SK1 (antibody, human IgG1, kappa)
heavy: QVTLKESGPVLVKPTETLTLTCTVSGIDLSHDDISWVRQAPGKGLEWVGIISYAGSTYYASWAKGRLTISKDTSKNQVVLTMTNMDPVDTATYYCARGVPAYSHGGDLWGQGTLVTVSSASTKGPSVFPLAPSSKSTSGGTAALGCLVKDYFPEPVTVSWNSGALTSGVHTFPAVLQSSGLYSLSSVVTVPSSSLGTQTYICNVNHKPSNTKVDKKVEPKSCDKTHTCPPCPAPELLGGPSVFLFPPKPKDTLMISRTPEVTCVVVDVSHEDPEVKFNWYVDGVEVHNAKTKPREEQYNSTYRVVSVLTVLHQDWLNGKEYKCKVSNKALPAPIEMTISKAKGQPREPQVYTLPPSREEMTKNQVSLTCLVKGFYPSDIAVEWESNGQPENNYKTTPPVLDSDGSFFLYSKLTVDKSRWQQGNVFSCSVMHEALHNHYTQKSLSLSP
light: B1 light
notes: Substitution introduced into M103205H795-SG1 and expressed with M103202L889-SK1 as light chain; also called K334M variant of MS1032LO06-SG1
B3: the “KD fold for humanFcgRs (SG1 = 1)” value in test [1] stood at 1.4 fold; in [2], 1.6 fold; in test [3], 4.05 fold; in [9], 1.3 fold. For the same molecule, the “KD fold for cynoFcgRs (SG1 = 1)” value in [4] was 1.5 fold; in test [5] it was 2.2 fold; in test [6], 2.5 fold; in test [7], 1.6 fold; in test [8] it was 3.6 fold.

B4: Ab003 (M103205H009 / M103202L000) (antibody, human IgG1, kappa, V domains shown)
VH: QVTLKESGPVLVKPTETLTLTCTVSGIDLSSYDISWVRQAPGKGLEWVGIISHAGSTYYASWAKGRLTISKDTSKNQVVLTMTNMDPVDTATYYCARGVPAYSTGGDLWGQGTLVTVSS
VL: DIVMTQSPATLSLSPGERATLSCQSSQSVYDNNWLSWFQQKPGQPPKLLIYWASTLASGVPSRFSGSGSGTDFTLTISSLQPEDAATYYCAGGYGGGLYAFGQGTKVEIKR
notes: Histidine-substituted variant of MS1032LO00-SG1
Consider B4, for which the koff in test [10] stood at 0.00088 s⁻¹.

B5: Ab004 (M103205H026 / M103202L000) (antibody, human IgG1, kappa, V domains shown)
VH: B4 VH with H53Y, Y102H
VL: B4 VL
notes: as for B4
With B5, the off-rate (koff) in [10] worked out at 0.000186 s⁻¹.

B6: Ab005 (M103205H028 / M103202L000) (antibody, human IgG1, kappa, V domains shown)
VH: B4 VH with H53Y, T104H
VL: B4 VL
notes: as for B4
Regarding B6, in test [10], the dissociation rate constant (koff) amounted to 7.63e-05 s⁻¹.

B7: Ab007 (M103205H028 / M103202L008) (antibody, human IgG1, kappa, V domains shown)
VH: B4 VH with H53Y, T104H
VL: B4 VL with D31H
notes: as for B4
Turning to B7, the koff in test [10] amounted to 0.000415 s⁻¹.

B8: Ab006 (M103205H000 / M103202L008) (antibody, human IgG1, kappa, V domains shown)
VH: B4 VH with H53Y
VL: B4 VL with D31H
notes: as for B4
B8: in [10], the dissociation rate constant (koff) stood at 8.58e-05 s⁻¹.

As usually defined, the koff is the rate constant with which the complex falls apart.

The values above are taken from patent publication US20200317768A1 (published 2020).
